Target: T1, Alpha-fetoprotein (AFP) (UniProt P02771 19-609)
T1 sequence: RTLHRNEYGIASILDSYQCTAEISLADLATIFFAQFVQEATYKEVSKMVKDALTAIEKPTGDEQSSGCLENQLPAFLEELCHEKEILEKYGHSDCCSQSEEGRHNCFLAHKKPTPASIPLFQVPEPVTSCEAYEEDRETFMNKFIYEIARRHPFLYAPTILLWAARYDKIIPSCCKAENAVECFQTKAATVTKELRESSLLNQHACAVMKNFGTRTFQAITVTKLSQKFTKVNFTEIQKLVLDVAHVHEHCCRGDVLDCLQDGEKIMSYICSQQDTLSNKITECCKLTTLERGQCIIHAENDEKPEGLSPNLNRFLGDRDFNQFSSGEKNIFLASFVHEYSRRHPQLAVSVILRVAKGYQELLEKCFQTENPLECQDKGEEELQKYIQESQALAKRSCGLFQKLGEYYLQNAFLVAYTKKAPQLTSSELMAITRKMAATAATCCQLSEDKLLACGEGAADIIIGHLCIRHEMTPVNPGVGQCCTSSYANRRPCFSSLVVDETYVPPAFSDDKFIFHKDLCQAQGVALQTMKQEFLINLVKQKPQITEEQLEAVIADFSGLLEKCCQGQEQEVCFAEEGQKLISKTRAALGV
Test: electrochemical aptasensor (DPV, CV, EIS); toluidine blue, BSA-blocked PEI-AuNPs electrode; 50 ng/mL AFP lowers DPV current ca. 39 to 26 uA; 10 mM sodium phosphate buffer pH 7.0, 30 min incubation at room temperature; CV in 10 mM PBS pH 7.4 with 5 mM [Fe(CN)6]3-
Conditions: protein: commercial

B1: AFP-specific aptamer (75-mer) (ssDNA)
DNA: GTGACGCTCCTAACGCTGACTCAGGTGCAGTTCTCGACTCGGTCTTGATGTGGGTCCTGTCCGTCCGAACCAATC
B1: binds.
